{"source": "patent US20110151450", "test_in_all_cases": "cleavage_in_vitro", "key": {"[1]": {"test_system": "T1, BsmAI-HF N212A (Bacillus stearothermophilus)", "T1 sequence": "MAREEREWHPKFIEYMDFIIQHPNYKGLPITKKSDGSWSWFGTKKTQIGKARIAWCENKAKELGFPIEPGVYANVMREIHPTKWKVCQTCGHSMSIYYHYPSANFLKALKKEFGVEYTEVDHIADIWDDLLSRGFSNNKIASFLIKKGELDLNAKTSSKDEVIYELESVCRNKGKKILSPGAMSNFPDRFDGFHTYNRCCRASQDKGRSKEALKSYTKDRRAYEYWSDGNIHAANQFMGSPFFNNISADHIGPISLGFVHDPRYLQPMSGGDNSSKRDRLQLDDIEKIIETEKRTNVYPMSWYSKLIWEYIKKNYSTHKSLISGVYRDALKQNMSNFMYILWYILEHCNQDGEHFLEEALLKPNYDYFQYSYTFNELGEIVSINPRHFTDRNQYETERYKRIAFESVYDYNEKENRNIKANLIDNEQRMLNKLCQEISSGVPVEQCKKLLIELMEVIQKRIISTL", "settings": "NEB4, relative activity 100%"}, "[2]": {"test_system": "T2, BsmAI-WT (Bacillus stearothermophilus)", "T2 sequence": "T1 sequence with A212N", "settings": "NEB4, relative activity 100%"}, "[3]": {"test_system": "T3, BsmBI-HF W238A (Bacillus stearothermophilus)", "T3 sequence": "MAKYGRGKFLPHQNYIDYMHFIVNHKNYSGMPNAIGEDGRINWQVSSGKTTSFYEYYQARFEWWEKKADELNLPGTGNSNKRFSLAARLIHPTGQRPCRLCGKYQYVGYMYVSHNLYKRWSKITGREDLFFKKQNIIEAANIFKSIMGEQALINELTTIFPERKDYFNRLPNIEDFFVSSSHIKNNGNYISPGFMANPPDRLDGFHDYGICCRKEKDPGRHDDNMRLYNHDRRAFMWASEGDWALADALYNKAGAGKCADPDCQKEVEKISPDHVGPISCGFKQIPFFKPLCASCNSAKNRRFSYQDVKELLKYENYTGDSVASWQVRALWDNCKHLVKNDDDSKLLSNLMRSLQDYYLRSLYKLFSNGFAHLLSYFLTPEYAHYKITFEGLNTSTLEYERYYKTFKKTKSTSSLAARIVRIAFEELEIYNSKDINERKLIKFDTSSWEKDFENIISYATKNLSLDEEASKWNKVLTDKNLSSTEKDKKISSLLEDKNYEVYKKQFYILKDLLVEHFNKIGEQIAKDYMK", "settings": "NEB4, relative activity 100%"}, "[4]": {"test_system": "T4, BsmBI-WT (Bacillus stearothermophilus)", "T4 sequence": "T3 sequence with A238W", "settings": "NEB4, relative activity 25%"}, "[5]": {"test_system": "T5, BstXI-HF N65T (Bacillus stearothermophilus)", "T5 sequence": "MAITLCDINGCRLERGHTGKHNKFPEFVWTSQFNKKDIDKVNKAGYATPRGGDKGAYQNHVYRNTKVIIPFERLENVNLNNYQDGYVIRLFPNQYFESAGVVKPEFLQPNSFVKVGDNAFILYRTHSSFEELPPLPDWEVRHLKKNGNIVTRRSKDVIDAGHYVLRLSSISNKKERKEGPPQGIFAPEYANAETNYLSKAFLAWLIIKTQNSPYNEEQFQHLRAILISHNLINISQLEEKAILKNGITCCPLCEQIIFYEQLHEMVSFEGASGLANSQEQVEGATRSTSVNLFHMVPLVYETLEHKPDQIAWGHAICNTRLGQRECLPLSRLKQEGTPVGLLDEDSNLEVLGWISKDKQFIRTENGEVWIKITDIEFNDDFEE", "settings": "NEB4, relative activity 100%"}, "[6]": {"test_system": "T6, BstXI-WT (Bacillus stearothermophilus)", "T6 sequence": "T5 sequence with T65N", "settings": "NEB4, relative activity 100%"}, "[7]": {"test_system": "T7, DraIII-HF T181A (Deinococcus radiophilus)", "T7 sequence": "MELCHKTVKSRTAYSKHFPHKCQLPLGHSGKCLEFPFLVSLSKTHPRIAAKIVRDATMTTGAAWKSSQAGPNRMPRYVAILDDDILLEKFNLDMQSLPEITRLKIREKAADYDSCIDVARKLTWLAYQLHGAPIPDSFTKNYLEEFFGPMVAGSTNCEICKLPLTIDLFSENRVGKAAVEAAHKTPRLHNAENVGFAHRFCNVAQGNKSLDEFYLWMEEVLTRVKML", "settings": "NEB4, 37 C 1 h, relative activity 100%; Table 1 gives >=2000"}, "[8]": {"test_system": "T8, DraIII-WT (Deinococcus radiophilus)", "T8 sequence": "T7 sequence with A181T", "settings": "NEB4, 37 C 1 h, relative activity 50%"}, "[9]": {"target": "T9, HindIII-WT (Haemophilus influenzae) (UniProt P43870)", "T9 sequence": "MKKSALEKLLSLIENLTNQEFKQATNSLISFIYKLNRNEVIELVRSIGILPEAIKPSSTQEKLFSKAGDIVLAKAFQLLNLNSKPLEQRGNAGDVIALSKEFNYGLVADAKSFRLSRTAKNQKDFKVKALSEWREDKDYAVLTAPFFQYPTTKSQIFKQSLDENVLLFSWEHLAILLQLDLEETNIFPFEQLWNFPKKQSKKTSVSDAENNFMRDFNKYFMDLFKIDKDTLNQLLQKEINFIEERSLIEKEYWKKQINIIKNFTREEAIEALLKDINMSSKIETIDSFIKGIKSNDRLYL", "settings": "NEB4, relative activity 50%"}, "[10]": {"test_system": "T10, PspGI-HF R75A (Pyrococcus species)", "T10 sequence": "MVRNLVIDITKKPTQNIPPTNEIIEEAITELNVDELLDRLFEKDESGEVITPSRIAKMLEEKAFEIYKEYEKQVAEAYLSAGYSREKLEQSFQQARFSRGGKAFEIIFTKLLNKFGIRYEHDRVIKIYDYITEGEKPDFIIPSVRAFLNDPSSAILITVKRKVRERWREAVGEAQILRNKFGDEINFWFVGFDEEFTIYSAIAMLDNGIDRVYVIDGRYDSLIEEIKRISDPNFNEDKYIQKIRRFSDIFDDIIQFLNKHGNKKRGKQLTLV", "settings": "NEB4, relative activity 100%"}, "[11]": {"test_system": "T11, PspGI-WT (Pyrococcus species)", "T11 sequence": "T10 sequence with A75R", "settings": "NEB4, relative activity 100%"}, "[12]": {"target": "T12, SfiI-HF R114A (Streptomyces fimbriatus) (UniProt O52512)", "T12 sequence": "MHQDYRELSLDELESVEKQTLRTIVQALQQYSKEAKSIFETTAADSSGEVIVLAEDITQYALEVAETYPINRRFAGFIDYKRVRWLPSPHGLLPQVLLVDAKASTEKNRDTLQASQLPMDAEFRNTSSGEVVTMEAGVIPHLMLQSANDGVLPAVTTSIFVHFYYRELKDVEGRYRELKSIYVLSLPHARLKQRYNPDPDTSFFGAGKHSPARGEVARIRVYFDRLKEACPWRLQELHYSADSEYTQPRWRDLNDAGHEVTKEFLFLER", "settings": "NEB4, relative activity 100%"}, "[13]": {"target": "T13, SfiI-WT (Streptomyces fimbriatus) (UniProt O52512)", "T13 sequence": "T12 sequence with A114R", "settings": "NEB4, relative activity 25%"}}, "note": "Positions count from the first letter of the chain named.", "data": [{"substance": "FX174 DNA", "values": [{"measurement": "activity (fidelity index)", "setting": "[1]", "result": "> 4000"}, {"measurement": "activity (fidelity index)", "setting": "[2]", "result": 250}]}, {"substance": "lambda DNA, BsmBI sites", "values": [{"measurement": "activity (fidelity index)", "setting": "[3]", "result": 250}, {"measurement": "activity (fidelity index)", "setting": "[4]", "result": 4}]}, {"substance": "lambda DNA, BstXI sites", "values": [{"measurement": "activity (fidelity index)", "setting": "[5]", "result": "> 1000"}, {"measurement": "activity (fidelity index)", "setting": "[6]", "result": 32}]}, {"substance": "lambda DNA, DraIII sites", "values": [{"measurement": "activity (fidelity index)", "setting": "[7]", "result": "> 64000"}, {"measurement": "activity (fidelity index)", "setting": "[8]", "result": 0.5}]}, {"substance": "lambda DNA, HindIII sites", "values": [{"measurement": "activity (fidelity index)", "setting": "[9]", "result": 32}]}, {"substance": "pBC4 plasmid", "values": [{"measurement": "activity (fidelity index)", "setting": "[10]", "result": "> 4000"}, {"measurement": "activity (fidelity index)", "setting": "[11]", "result": 1}, {"measurement": "activity (fidelity index)", "setting": "[12]", "result": "> 8000"}, {"measurement": "activity (fidelity index)", "setting": "[13]", "result": 64}]}]}
